The text below walks through data of patent US20220089743A1 (Chugai, published 2022).

The target in test [1] is HLA-DQ2.5 on IHW09023 cells loaded with 33 mer gliadin peptide (human; wheat). Put plainly: cell-based or functional assay.
Test [2] deals with HLA-DQ2.5 on IHW09023 cells loaded with omega1/2 gliadin peptide (human; wheat). Put plainly: cell-based or functional assay.
Test [3] has as its target HLA-DQ2.5 on IHW09023 cells loaded with BC hordein peptide (human; barley). The experiment in a line: cell-based or functional assay.
Test [4] addresses HLA-DQ2.5 on IHW09023 cells loaded with gamma 1 gliadin peptide (human; wheat). Put plainly: cell-based or functional assay.
The target in test [5] is HLA-DQ2.5 on IHW09023 cells loaded with gamma 2 gliadin peptide (human; wheat). The experiment in a line: cell-based or functional assay.
Test [6] addresses HLA-DQ2.5 on IHW09023 cells loaded with gamma 3 gliadin peptide (human; wheat). The experiment in a line: cell-based or functional assay.
The target in test [7] is HLA-DQ2.5 on IHW09023 cells loaded with gamma 4a gliadin peptide (human; wheat). The experiment in a line: cell-based or functional assay.
The target in test [8] is HLA-DQ2.5 on IHW09023 cells loaded with gamma 4d gliadin peptide (human; wheat). Put plainly: cell-based or functional assay.
For a further test, the target named is T1, HLA-DQ5.1 on Ba/F3 cells (human, limits assumed).
T1 construct: whole, on cells; also called Ba/F3-HLA-DQ5.1
T1 MHC II alpha: not shown
T1 MHC II beta: not shown
The experiment in a line: FACS, Ba/F3 cells; raw MFI.

Another test has as its target T2, HLA-DQ6.3 on Ba/F3 cells (human, UniProt P01920 33-230, limits assumed).
T2 construct: whole, on cells; also called Ba/F3-HLA-DQ6.3
T2 MHC II alpha: not shown
T2 MHC II beta: not shown
The experiment in a line: FACS, Ba/F3 cells; raw MFI. On the technique in general: Flow cytometry measures light scatter and fluorescence of single cells or particles in a stream.

The target of a further test is T3, HLA-DR on Ba/F3 cells (human, UniProt P01903 26-216; P79483 30-227, limits assumed).
T3 construct: whole, on cells; also called Ba/F3-HLA-DR
T3 MHC II alpha: not shown
T3 MHC II beta: not shown
The experiment in a line: FACS, Ba/F3 cells; raw MFI.

The next test addresses T4, HLA-DP on Ba/F3 cells (human, UniProt P20036 29-222; P04440 30-225, limits assumed).
T4 construct: whole, on cells; also called Ba/F3-HLA-DP
Put plainly: FACS, Ba/F3 cells; raw MFI.

Another test concerns the target T5, HLA-DQ2.5 on Ba/F3 cells (human, UniProt P01909 24-216, limits assumed).
T5 construct: whole, on cells; MHC class II without a fused peptide; also called Ba/F3-HLA-DQ2.5
The experiment in a line: FACS, Ba/F3 cells; %MFI with IC17dK 0 and DQN0139bb 100.

In another test the target is T6, HLA-DQ2.2 on Ba/F3 cells (human, UniProt P01909 24-216, limits assumed).
T6 construct: whole, on cells; also called Ba/F3-HLA-DQ2.2
T6 MHC II alpha: not shown
T6 MHC II beta: not shown
The test is described as above.

For the next test, the target named is T7, HLA-DQ7.5 on Ba/F3 cells (human, UniProt P01909 24-216; P01920 33-230, limits assumed).
T7 construct: whole, on cells; also called Ba/F3-HLA-DQ7.5
The test is described as above.

For the next test, the target named is T8, HLA-DQ8 on Ba/F3 cells (human, UniProt P01909 24-216; P01920 33-230, limits assumed).
T8 construct: whole, on cells; also called Ba/F3-HLA-DQ8
T8 MHC II alpha: not shown
T8 MHC II beta: not shown
Described as above.

Another test addresses T9, HLA-DQ7.3 on Ba/F3 cells (human, UniProt P01909 24-216; P01920 33-230, limits assumed).
T9 construct: whole, on cells; also called Ba/F3-HLA-DQ7.3
T9 MHC II alpha: not shown
T9 MHC II beta: not shown
The test is described as above.

T4 sequence (P20036 29-222 limits assumed, chain 1 of 4, other chains not shown): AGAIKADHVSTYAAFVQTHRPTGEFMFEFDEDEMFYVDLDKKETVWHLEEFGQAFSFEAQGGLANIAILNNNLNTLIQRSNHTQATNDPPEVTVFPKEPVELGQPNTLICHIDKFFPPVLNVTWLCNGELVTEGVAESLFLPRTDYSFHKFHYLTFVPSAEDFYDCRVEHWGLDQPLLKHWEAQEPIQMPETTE
T4 sequence (P04440 30-225 limits assumed, chain 2 of 4, other chains not shown): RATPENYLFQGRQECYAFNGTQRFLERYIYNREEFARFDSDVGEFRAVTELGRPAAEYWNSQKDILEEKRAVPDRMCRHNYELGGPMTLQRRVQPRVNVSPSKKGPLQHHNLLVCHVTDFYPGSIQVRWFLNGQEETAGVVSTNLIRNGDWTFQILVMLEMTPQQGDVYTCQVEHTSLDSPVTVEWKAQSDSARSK

B1: DQN0344H1013/L0620//DQN0385H1353/L0681-F6 (bispecific antibody)
heavy 1: QVQLVESGGGVVQPGRSLRLSCAASGFTFSSAYWMVWVRQAPGQGLEWMGAVYGGSDTTYYAKWTEGRFTISRDTSKNTLYLQMNSLRAEDTAVYYCAREPLNYYYYGELNVWGQGTLVTVSSASTKGPSVFPLAPSSKSTSGGTAALGCLVKDYFPEPVTVSWNSGALTSGVHTFPAVLKSSGLYSLSSVVTVPSSSLGTQTYICNVNHKPSNTKVDKRVEPKSCDKTHTCPPCPAPELRRGPSVFLFPPKPKDTLMISRTPEVTCVVVDVSHEDPEVKFNWYVDGVEVHNAKTKPREEQYNSTYRVVSVLTVLHQDWLNGKEYKCKVSNKALPAPIEKTISKAKGQPREPQVYTLPPSREEMTKNQVSLTCLVKGFYPSDIAVEWESNGQPENNYKTTPPYLDSDGSFFLYSKLTVDKSRWQEGNVFSCSVLHEALHAHYTREELSLSP
light 1: DIQMTQSPSSLSASVGDRVTITCQATENIYSGLAWYQQKPGKAPKLLIYYVSTLAYGIPARFSGSGSGTDFTLTISSLEPEDFAVYYCQTYEDVSAVTFGQGTKVEIKRTVAAPSVFIFPPSDEQLKSGTAEVVCLLNNFYPREAKVQWKVDNALQSGNSEESVTEQDSKDSTYSLSSTLTLSKADYEKHKVYACEVTHQGLSSPVTKSFNRGEC
heavy 2: QVQLVESGGGVVQPGRSLRLSCAASGFTFAEWYFMSWVRQAPGKGLEWVASIDTGSGSIDYAEWVEGRFTISRDNSKNTLYLQMNSLRAEDTAVYYCARDIGIDYNFWGPGTLVTVSSASTKGPSVFPLAPSSKSTSGGTAALGCLVEDYFPEPVTVSWNSGALTSGVHTFPAVLESSGLYSLSSVVTVPSSSLGTKTYICNVNHKPSNTKVDKRVEPKSCDKTHTCPPCPAPELRRGPSVFLFPPKPKDTLMISRTPEVTCVVVDVSHEDPEVKFNWYVDGVEVHNAKTKPREEQYNSTYRVVSVLTVLHQDWLNGKEYKCKVSNKALPAPIEKTISKAKGQPREPQVYTLPPSRKEMTKNQVSLTCLVKGFYPSDIAVEWESNGQPENNYKTTPPYLDSDGSFFLYSKLTVDKSRWQQGNVFSCSVLHEALHAHYTRKELSLSP
light 2: DIQMTQSPSSLSASVGDRVTITCQTTQSISSYLNWYQQKPGQPPKLLIYYASTKAEGIPARFSGSGLGTDFTLTISSLEPEDFAVYYCHYGISKVSFGQGTKVEIKRTVAAPSVFIFPPSDEQLKSGTAKVVCLLNNFYPREAKVQWKVDNALQSGNSKESVTEQDSKDSTYSLSSTLTLSKADYEKHKVYACEVTHQGLSSPVTKSFNRGEC
In the case of B1, the “IC50, α1a gliadin TCR, 250 nM 33mer gliadin” value in test [1] was 0.29 ng/mL. The “IC50, α1b gliadin TCR, 250 nM 33mer gliadin” value in test [1] came out at 1.13 ng/mL. Moreover, the “IC50, α2 gliadin TCR, 250 nM 33mer gliadin” value in test [1] came out at 0.34 ng/mL. In test [2], the “IC50, ω1 gliadin TCR, 25 µM ω1/2 gliadin” value was determined as 1.17 ng/mL. Also, the “IC50, ω2 gliadin TCR, 250 nM ω1/2 gliadin” value in test [2] turned out to be 0.17 ng/mL. Moreover, the “IC50, BC hordein TCR, 250 nM BC hordein” value in test [3] was 8.78 ng/mL. Moreover, in test [4], the “IC50, γ1 gliadin TCR, 250 nM γ1 gliadin” value is 0.56 ng/mL. The “IC50, γ2 gliadin TCR, 250 nM γ2 gliadin” value in test [5] came out at 100 ng/mL. For the same molecule, in test [6], the “IC50, γ3 gliadin TCR, 100 µM γ3 gliadin” value was 2.29 ng/mL. For the same molecule, the “IC50, γ4a gliadin TCR, 25 µM γ4a gliadin” value in test [7] was determined as 1250 ng/mL. Further, in test [8], the “IC50, γ4d gliadin TCR, 100 µM γ4d gliadin” value was 2.06 ng/mL. In addition, the binding result in the test with HLA-DQ5.1 on Ba/F3 cells, with HLA-DQ6.3 on Ba/F3 cells, with HLA-DR on Ba/F3 cells, in the test with HLA-DP on Ba/F3 cells, with HLA-DQ2.5 on Ba/F3 cells and in the test with HLA-DQ2.2 on Ba/F3 cells was “no binding (tested: 0.05 ug/mL)” throughout. Besides, the binding result with HLA-DQ7.5 on Ba/F3 cells, in the test with HLA-DQ8 on Ba/F3 cells and with HLA-DQ7.3 on Ba/F3 cells was “no binding (tested: 0.05 ug/mL)” each time.
